Test results from paper PMC11154713 (The Journal of Biological Chemistry, 2024).
pEC50: −log10 of the molar value. Read-outs that look alike come from different tables or passages of the source. Bridges are numbered along the chain shown (N, C = ends). Where no end group is shown, it is not given here.

Experiments:
CB2R [1] = biological target: T1, CB2R (Homo sapiens, UniProt P34972); experiment: cell-based; format: cell-based; conditions: for decrease of efficacy of 2-AG to recruit β-arrestin-2 / decrease of efficacy of CP55940 to recruit β-arrestin-2: single point, peptide 10 μM; for decrease of efficacy of 2-AG to recruit β-arrestin-2: 2-AG 1 μM; for decrease of efficacy of CP55940 to recruit β-arrestin-2: CP55940 1 μM
CB2R [2] = biological target: T1, CB2R; format: cell-based
[3] = tested on: untransfected CHO-K1 cells; experiment: cAMP assay in untransfected CHO-K1 cells; format: cell-based; conditions: vodo-C1 30 µM; CP55940 and 2-AG 10 µM and 1 µM, alone or with 10 μM vBCL1-4
CB2R [4] = biological target: T1, CB2R; experiment: cAMP assay; format: cell-based; conditions: varying concentrations, inverse agonist control
CB2R [5] = biological target: T1, CB2R; experiment: cAMP assay in the absence of forskolin; format: cell-based; conditions: 10 µM peptide with varying CP55940, no forskolin
CB2R [6] = biological target: T1, CB2R; experiment: Radioligand displacement of [3H]-CP55940 at human CB2R membrane preparations; format: binding; conditions: peptide 100 nM and 10 μM; [3H]-CP55940 0.5 nM mixed with cold CP55940 4.5 nM

T1 sequence (P34972 whole entry): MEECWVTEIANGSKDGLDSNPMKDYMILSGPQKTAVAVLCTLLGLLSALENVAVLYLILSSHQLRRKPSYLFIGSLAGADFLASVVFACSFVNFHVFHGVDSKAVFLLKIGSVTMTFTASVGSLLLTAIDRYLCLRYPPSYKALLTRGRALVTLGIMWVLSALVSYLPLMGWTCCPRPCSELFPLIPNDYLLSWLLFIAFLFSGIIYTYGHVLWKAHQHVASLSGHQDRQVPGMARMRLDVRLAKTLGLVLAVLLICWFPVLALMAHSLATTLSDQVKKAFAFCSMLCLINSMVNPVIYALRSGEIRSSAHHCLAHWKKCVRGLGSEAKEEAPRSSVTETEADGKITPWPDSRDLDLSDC

Compound	changes in cAMP levels in untransfected cells [3]	decrease of efficacy of 2-AG to recruit β-arrestin-2 (CB2R [1])	decrease of efficacy of CP55940 to recruit β-arrestin-2 (CB2R [1])	EC50 fold shift relative to 2-AG (CB2R [2]; 10 μM peptide) [fold]	EC50 fold shift relative to WIN55,212-2 (CB2R [2]; 10 μM peptide) [fold]	further results
CCCCC/C=C\C/C=C\C/C=C\C/C=C\CCCC(=O)OC(CO)CO [2-AG, 2-arachidonoylglycerol, reference compound]	no changes in cAMP levels					pEC50 (CB2R [1]): 6.22; pEC50 (CB2R [2]; EC50 of agonist alone, agonist alone): 6.32
CCCCCCC(C)(C)c1ccc([C@@H]2C[C@H](O)CC[C@H]2CCCO)c(O)c1 [CP55940]	no changes in cAMP levels					
SR144528						effect on basal levels of CB2R activity (CB2R [4]): reduced the basal levels of CB2R activity
vBCL1: vodo-C1-inspired bicyclic loop peptide, loops 1 and 2, 10 residues, cyclized with 1,3,5-tris-(bromomethyl)-benzene (CGETCFTGKC; linker 1-5-10 via 1,3,5‑tris‑(bromomethyl)‑benzene (inferred))		no or only minor (not significant) changes	no or only minor (not significant) changes	~6	~6	
vBCL3: vodo-C1-inspired bicyclic loop peptide, loops 5 and 6, 15 residues, cyclized with 1,3,5-tris-(bromomethyl)-benzene (CEWPICTKNGDPLPC; linker 1-6-15 via 1,3,5‑tris‑(bromomethyl)‑benzene (inferred))		no or only minor (not significant) changes	no or only minor (not significant) changes	~6	~6	intrinsic inverse agonist activity (CB2R [5]): lacks intrinsic inverse agonist activity; binding to the receptor (two-point displacement) (CB2R [6]): did not bind to the receptor; decrease of the efficacy of CP55940 (CB2R [2]; 10 μM peptide): ~40%; effect on basal activity (WIN55,212-2 curve) (CB2R [2]; 10 μM peptide): reduced the basal activity; effect on basal response (CP55940 curve) (CB2R [2]; 10 μM peptide): reduction in basal response
